B1: H183/L072 VH K52bL (antibody, name in Kabat numbering, V domains shown)
VH: QVQLVESGGGLVQPGRSLRLSCAASGFTFSNAWMHWVRQAPGKGLEWVAQIKDLGNAYAAYYAPSVKGRFTISRDDSKNSIYLQMNSLKTEDTAVYYCHYVHYASASTVLPAFGVDAWGQGTTVTVSS
VL: DIVMTQSPLSLPVTPGEPASISCQASQELVHMNRNTYLHWYQQKPGQAPRLLIYKVSNRFPGVPDRFSGSGSGTDFTLKISRVEAEDVGVYYCAQGTSVPFTFGQGTKLEIK
B2: H183/L072 VH K52bM (antibody, name in Kabat numbering, V domains shown)
VH: QVQLVESGGGLVQPGRSLRLSCAASGFTFSNAWMHWVRQAPGKGLEWVAQIKDMGNAYAAYYAPSVKGRFTISRDDSKNSIYLQMNSLKTEDTAVYYCHYVHYASASTVLPAFGVDAWGQGTTVTVSS
VL: DIVMTQSPLSLPVTPGEPASISCQASQELVHMNRNTYLHWYQQKPGQAPRLLIYKVSNRFPGVPDRFSGSGSGTDFTLKISRVEAEDVGVYYCAQGTSVPFTFGQGTKLEIK
B3: H183/L072 VH K52bN (antibody, name in Kabat numbering, V domains shown)
VH: QVQLVESGGGLVQPGRSLRLSCAASGFTFSNAWMHWVRQAPGKGLEWVAQIKDNGNAYAAYYAPSVKGRFTISRDDSKNSIYLQMNSLKTEDTAVYYCHYVHYASASTVLPAFGVDAWGQGTTVTVSS
VL: DIVMTQSPLSLPVTPGEPASISCQASQELVHMNRNTYLHWYQQKPGQAPRLLIYKVSNRFPGVPDRFSGSGSGTDFTLKISRVEAEDVGVYYCAQGTSVPFTFGQGTKLEIK
B4: H183/L072 VH K52bP (antibody, name in Kabat numbering, V domains shown)
VH: QVQLVESGGGLVQPGRSLRLSCAASGFTFSNAWMHWVRQAPGKGLEWVAQIKDPGNAYAAYYAPSVKGRFTISRDDSKNSIYLQMNSLKTEDTAVYYCHYVHYASASTVLPAFGVDAWGQGTTVTVSS
VL: DIVMTQSPLSLPVTPGEPASISCQASQELVHMNRNTYLHWYQQKPGQAPRLLIYKVSNRFPGVPDRFSGSGSGTDFTLKISRVEAEDVGVYYCAQGTSVPFTFGQGTKLEIK
B5: H183/L072 VH K52bQ (antibody, name in Kabat numbering, V domains shown)
VH: QVQLVESGGGLVQPGRSLRLSCAASGFTFSNAWMHWVRQAPGKGLEWVAQIKDQGNAYAAYYAPSVKGRFTISRDDSKNSIYLQMNSLKTEDTAVYYCHYVHYASASTVLPAFGVDAWGQGTTVTVSS
VL: DIVMTQSPLSLPVTPGEPASISCQASQELVHMNRNTYLHWYQQKPGQAPRLLIYKVSNRFPGVPDRFSGSGSGTDFTLKISRVEAEDVGVYYCAQGTSVPFTFGQGTKLEIK
B6: H183/L072 VH K52bR (antibody, name in Kabat numbering, V domains shown)
VH: QVQLVESGGGLVQPGRSLRLSCAASGFTFSNAWMHWVRQAPGKGLEWVAQIKDRGNAYAAYYAPSVKGRFTISRDDSKNSIYLQMNSLKTEDTAVYYCHYVHYASASTVLPAFGVDAWGQGTTVTVSS
VL: DIVMTQSPLSLPVTPGEPASISCQASQELVHMNRNTYLHWYQQKPGQAPRLLIYKVSNRFPGVPDRFSGSGSGTDFTLKISRVEAEDVGVYYCAQGTSVPFTFGQGTKLEIK
B7: H183/L072 VH K52bS (antibody, name in Kabat numbering, V domains shown)
VH: QVQLVESGGGLVQPGRSLRLSCAASGFTFSNAWMHWVRQAPGKGLEWVAQIKDSGNAYAAYYAPSVKGRFTISRDDSKNSIYLQMNSLKTEDTAVYYCHYVHYASASTVLPAFGVDAWGQGTTVTVSS
VL: DIVMTQSPLSLPVTPGEPASISCQASQELVHMNRNTYLHWYQQKPGQAPRLLIYKVSNRFPGVPDRFSGSGSGTDFTLKISRVEAEDVGVYYCAQGTSVPFTFGQGTKLEIK
B8: H183/L072 VH K52bT (antibody, name in Kabat numbering, V domains shown)
VH: QVQLVESGGGLVQPGRSLRLSCAASGFTFSNAWMHWVRQAPGKGLEWVAQIKDTGNAYAAYYAPSVKGRFTISRDDSKNSIYLQMNSLKTEDTAVYYCHYVHYASASTVLPAFGVDAWGQGTTVTVSS
VL: DIVMTQSPLSLPVTPGEPASISCQASQELVHMNRNTYLHWYQQKPGQAPRLLIYKVSNRFPGVPDRFSGSGSGTDFTLKISRVEAEDVGVYYCAQGTSVPFTFGQGTKLEIK
B9: H183/L072 VH K52bV (antibody, name in Kabat numbering, V domains shown)
VH: QVQLVESGGGLVQPGRSLRLSCAASGFTFSNAWMHWVRQAPGKGLEWVAQIKDVGNAYAAYYAPSVKGRFTISRDDSKNSIYLQMNSLKTEDTAVYYCHYVHYASASTVLPAFGVDAWGQGTTVTVSS
VL: DIVMTQSPLSLPVTPGEPASISCQASQELVHMNRNTYLHWYQQKPGQAPRLLIYKVSNRFPGVPDRFSGSGSGTDFTLKISRVEAEDVGVYYCAQGTSVPFTFGQGTKLEIK
B10: H183/L072 VH K52bW (antibody, name in Kabat numbering, V domains shown)
VH: QVQLVESGGGLVQPGRSLRLSCAASGFTFSNAWMHWVRQAPGKGLEWVAQIKDWGNAYAAYYAPSVKGRFTISRDDSKNSIYLQMNSLKTEDTAVYYCHYVHYASASTVLPAFGVDAWGQGTTVTVSS
VL: DIVMTQSPLSLPVTPGEPASISCQASQELVHMNRNTYLHWYQQKPGQAPRLLIYKVSNRFPGVPDRFSGSGSGTDFTLKISRVEAEDVGVYYCAQGTSVPFTFGQGTKLEIK
B11: H183/L072 VH K52bY (antibody, name in Kabat numbering, V domains shown)
VH: QVQLVESGGGLVQPGRSLRLSCAASGFTFSNAWMHWVRQAPGKGLEWVAQIKDYGNAYAAYYAPSVKGRFTISRDDSKNSIYLQMNSLKTEDTAVYYCHYVHYASASTVLPAFGVDAWGQGTTVTVSS
VL: DIVMTQSPLSLPVTPGEPASISCQASQELVHMNRNTYLHWYQQKPGQAPRLLIYKVSNRFPGVPDRFSGSGSGTDFTLKISRVEAEDVGVYYCAQGTSVPFTFGQGTKLEIK
B12: H183/L072 VH K64A (antibody, name in Kabat numbering, V domains shown)
VH: QVQLVESGGGLVQPGRSLRLSCAASGFTFSNAWMHWVRQAPGKGLEWVAQIKDKGNAYAAYYAPSVAGRFTISRDDSKNSIYLQMNSLKTEDTAVYYCHYVHYASASTVLPAFGVDAWGQGTTVTVSS
VL: DIVMTQSPLSLPVTPGEPASISCQASQELVHMNRNTYLHWYQQKPGQAPRLLIYKVSNRFPGVPDRFSGSGSGTDFTLKISRVEAEDVGVYYCAQGTSVPFTFGQGTKLEIK
B13: H183/L072 VH K64I (antibody, name in Kabat numbering, V domains shown)
VH: QVQLVESGGGLVQPGRSLRLSCAASGFTFSNAWMHWVRQAPGKGLEWVAQIKDKGNAYAAYYAPSVIGRFTISRDDSKNSIYLQMNSLKTEDTAVYYCHYVHYASASTVLPAFGVDAWGQGTTVTVSS
VL: DIVMTQSPLSLPVTPGEPASISCQASQELVHMNRNTYLHWYQQKPGQAPRLLIYKVSNRFPGVPDRFSGSGSGTDFTLKISRVEAEDVGVYYCAQGTSVPFTFGQGTKLEIK
B14: H183/L072 VH K64L (antibody, name in Kabat numbering, V domains shown)
VH: QVQLVESGGGLVQPGRSLRLSCAASGFTFSNAWMHWVRQAPGKGLEWVAQIKDKGNAYAAYYAPSVLGRFTISRDDSKNSIYLQMNSLKTEDTAVYYCHYVHYASASTVLPAFGVDAWGQGTTVTVSS
VL: DIVMTQSPLSLPVTPGEPASISCQASQELVHMNRNTYLHWYQQKPGQAPRLLIYKVSNRFPGVPDRFSGSGSGTDFTLKISRVEAEDVGVYYCAQGTSVPFTFGQGTKLEIK
B15: H183/L072 VH K64M (antibody, name in Kabat numbering, V domains shown)
VH: QVQLVESGGGLVQPGRSLRLSCAASGFTFSNAWMHWVRQAPGKGLEWVAQIKDKGNAYAAYYAPSVMGRFTISRDDSKNSIYLQMNSLKTEDTAVYYCHYVHYASASTVLPAFGVDAWGQGTTVTVSS
VL: DIVMTQSPLSLPVTPGEPASISCQASQELVHMNRNTYLHWYQQKPGQAPRLLIYKVSNRFPGVPDRFSGSGSGTDFTLKISRVEAEDVGVYYCAQGTSVPFTFGQGTKLEIK

Each binder was assayed against T1, Human CD137 ECD (human) (assay: single mutant vs template dBBDu183H).
T1 construct: also called 4-1BB
T1 sequence (chain, as listed by the source limits assumed): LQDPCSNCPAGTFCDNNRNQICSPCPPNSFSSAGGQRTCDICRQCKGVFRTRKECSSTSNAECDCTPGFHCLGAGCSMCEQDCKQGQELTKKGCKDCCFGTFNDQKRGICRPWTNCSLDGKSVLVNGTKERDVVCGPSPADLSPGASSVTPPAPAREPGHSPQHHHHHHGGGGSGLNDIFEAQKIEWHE

**Q.** How did the “fold change of affinity” value turn out when B1 was run?
**A.** Its value is 0.5 fold.

**Q.** Which “fold change of affinity” value does the source give for B2 here?
**A.** Its value is 0.6 fold.

**Q.** Which “fold change of affinity” value does the source give for B3 here?
**A.** Its value is 0.2 fold.

**Q.** B4 was tested. Which “fold change of affinity” value did it give?
**A.** The value was 0.4 fold.

**Q.** With B5 as the binder, how does the “fold change of affinity” value read?
**A.** The value was 0.8 fold.

**Q.** B6 was tested. Which “fold change of affinity” value did it give?
**A.** The value was 1.2 fold.

**Q.** How did the “fold change of affinity” value turn out when B7 was run?
**A.** The value was 0.8 fold.

**Q.** B8 was tested. Which “fold change of affinity” value did it give?
**A.** The value was 0.1 fold.

**Q.** How did the “fold change of affinity” value turn out when B9 was run?
**A.** The value was 0.6 fold.

**Q.** With B10 as the binder, how does the “fold change of affinity” value read?
**A.** The value was 0.9 fold.

**Q.** With B11 as the binder, how does the “fold change of affinity” value read?
**A.** Its value is 1 fold.

**Q.** With B12 as the binder, how does the “fold change of affinity” value read?
**A.** The value was 1.2 fold.

**Q.** For B13, which “fold change of affinity” value is on record?
**A.** Its value is 1.1 fold.

**Q.** With B14 as the binder, how does the “fold change of affinity” value read?
**A.** Its value is 1.1 fold.

**Q.** For B15, which “fold change of affinity” value is on record?
**A.** Its value is 1.1 fold.
